Measured values from the supplement of paper PMC12764529.
± gives the half width of the 95% confidence interval.

test: folding stability dG unfold from chymotrypsin proteolysis; higher = more stable
Method in brief: (§1)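 Bayesian fitting of sequencing counts gave K50 for each design. Unfolding free energy followed by setting this against a sequence-predicted unfolded-state K50 and a shared folded-state K50, either per protease or with trypsin and chymotrypsin combined. The designs, under 80 residues and lacking cysteine, were digested in a PA-tagged cDNA display format at 11 threefold-diluted protease concentrations and without protease, and only those with AlphaFold2 dimer inter-PAE above 15 were kept.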

| Sequence | folding stability dG unfold [kcal/mol] |
| --- | --- |
| SGLKDVISVTVTQSPTAGEVPVVTAYSPDGSRTFNLAPEETEAFLKALREAGYNVVVTDRVFVPVPAELGSA [r9_607_JUSTAS] | 1.38 ± 0.052 |
| SAGGSAGGSAGGAEITIEEKDGKLTLTVRLPDGYVATATFDPNGKWTIKEIKVYKLPEGLSAGGSAGGSAGG [r7_826_TrROS_Hall] | 3.52 ± 0.077 |
| SEKPEFKIVKIEVVEVDEDGKTVKVRVVVEGPDGRLYEVEMTLEELKKLLEELGIDLEDIKPGDVIVIPPSA [r9_1078_TrROS_Hall] | 3.09 ± 0.073 |
| SAGGSAGGSAAYTTPDGTNIILKDPNRPVVSLYKKDPSTNTWTPVSTLPISEVPEEILELLSAGGSAGGSAG [r3_241_JUSTAS] | 0.583 ± 0.079 |
| SKKKKKKKKKKVIIKIKKDGKEIYIEMTVEEIKELLKKGVKKIEIYSPSEEEKEKIKKLLEEEGVEVEEVSA [r9_810_TrROS_Hall] | 1.71 ± 0.07 |
| SAGGSMTMTVEIHYPDGTVETRTVPYAPDDPAAAIAAVKAEVEARGGEVLAVETRDGVVTVKALVPPSAGGS [r16_662_JUSTAS] | 3.01 ± 0.086 |
| SISITLPDGTKTVSQSFNPEGNTITYTMEAPGKKITITLTEKVVGGSKEISVKITTDPVPLTPEEVAALKAS [r1_154_JUSTAS] | 1.94 ± 0.085 |
| SAGGSAGGSAGGGMSLSYTVTTSTTVVPAPDGVTVLHPTTTTFPGGPTTTTTTVTVEPAGSAGGSAGGSAGG [r7_701_JUSTAS] | -0.855 ± 0.12 |
| SAGGSAGGSALAEELAAKYPGLQVEVTRVEVEREVTDADGRKRTERVERLEIRVVKPGEELSAGGSAGGSAG [r3_358_TrROS_Hall] | -0.0574 ± 0.06 |
| SAGGSAITIEVTMNPNGYMGIRLRDPGNGEEIQIPFPMEPGQNPEDVRNWAREIVDELKKDGWRIYSAGGSA [r15_1022_TrROS] | 1.76 ± 0.11 |
| SAGGSAGGSAGGSNIPSDSTVTSKGSSDTTTSTYYNPETGTTLVTTTPPDGVPTTTTTASAGGSAGGSAGGS [r10_592_JUSTAS] | -0.398 ± 0.36 |
| SAGGSAMKKVTVTVKFPDGTTYTFDMDTESEEEFEKKVREEALKRFPDIPLEDVEVTEVVVTPELLSAGGSA [r15_220_JUSTAS] | 2.38 ± 0.039 |
| SAGGSAGGPFVLKFPDPKNMNKLQEAASDHGMNMNRNPEKGTHVINFGGNMLDELQELPGIEIVSAGGSAGG [r6_726_TrROS] | -1.1 ± 0.61 |
| SAGGRIRIEYDPENGTITIYVPTPDGEITPDQVEEIAKLLMELWPNIEVEIEPHPNGMVRITIKIPPKSAGG [r13_291_TrROS] | 3.81 ± 0.23 |
| SAMVVTYDPATGKITVNVTLYVEEPLTPEERAALAAAIKAALAAAHPDVDVTVTLHPAPSPEEVEKLAASAG [r14_406_JUSTAS] | 2.23 ± 0.058 |
| SAGSALAAALKLKTYTIKITAPDGTVIELTISYHPSDPEAIKEALAKAGYPPEKLKTENPNLETTEVDASAG [r5_430_JUSTAS] | 1.83 ± 0.14 |
| SAGGSAGPLPNEKVEVTLTIPLNVLVLDEDGEPLTPEEIARRVRELFSDVSVTLEPGDRLVITLTESAGGSA [r15_645_TrMRF] | 1.7 ± 0.022 |
| SAGGGLGADALAKKFKELFPNAKVEKLPNGKVLFYIPETGKLIEIYDLDDEQIIKIIDPNTPKVYIISAGGS [r16_478_TrMRF] | 0.986 ± 0.13 |
| SAGGSAGGSGMTAEEAREKKVAELKAQGYTPVKVEVVETRTDPATGKVTTKIKIEYKSPKGLTSAGGSAGGS [r20_46_JUSTAS] | 0.333 ± 0.12 |
| SAGGSAGGSMRIKFEFKIGDKWVEEEIPADLSQLPLSEIKKKHPKAEYKIEIEDEEGNWTPLLSAGGSAGGS [r12_540_JUSTAS] | 1.04 ± 0.1 |
| SAGGIKIERDPNMWKFEIPLPNKPLTIHISQSDGRYTIAIYENGKPIRTVPFPGPVDDAIERALKKLSAGGS [r8_276_TrROS] | 2.05 ± 0.032 |

| Sequence | folding stability dG unfold [kcal/mol] |
| --- | --- |
| SAGGSAGGSAGGPMEPIELTFMIPHPNGHPIVAKTEIWRMKNGFFIKPEIYNPDGNPIPSAGGSAGGSAGGS [r10_1056_TrROS] | -0.377 ± 0.3 |
| SAGGSAGGSAGGSDGALIFIIHIKMEMELEPNPDGPPKWDMDWDIEPTWIQIDDPEDFKSAGGSAGGSAGGS [r4_450_TrROS] | 2.48 ± 0.15 |
| SDPDAKLLPATFTFRDPLTGEEVTVEVTVYETSGYLLAPAKVTVTLPTKPRTLTATLLVDENGNVHLFVSSA [r9_1015_TrMRF] | 4.31 ± 0.08 |
| SAGGMKIIEIEDRGPGKFAGPETVLEALRKALPGIPIEVLDYDPEKHVIRIRVPEEAVPRIVEAFKSSAGGS [r8_235_TrMRF] | 3.96 ± 0.056 |
| SAGPPGQPIKPIDITVKPEENTITIKFGDKNLEIPIPPGVEADIWVYPDHIVITIEFPDGKIVTIVLPFSAG [r5_21_TrROS] | 4.46 ± 0.19 |
| SAGGSAGGSAEKVITVWIPLPPGQGVDEIAKEIARYLGFPNIKIDNIQYDPEDGWYQITFKLSAGGSAGGSA [r18_481_TrROS] | 4.163 ± 0.032 |
| SAGPEVVVFKGIEVEVTEVPPELLENLPPDVIAIPFGDRVLLIRVREYDVARFPPIPPLGANPETGELSSAG [r14_126_TrMRF] | 2.61 ± 0.11 |
| SVEELAKKLAELFPNVKVTVTEEEIDGKKVKTIRIENKKTGKTYEITVLPNGEILITDSNGKKFSLEELLSA [r9_1176_TrROS_Hall] | 4.91 ± 0.31 |
| SKLKIEDIKWNPNYPGMYEFKIKLPDKPATIQIPHDPNNGRFMMEIWYPDKPVTVQFDSWDDALAFIKELSA [r9_366_TrROS] | 1.35 ± 0.16 |
| SAGGSAGGSWRTITYEFKLPKPGQTAEDIAKEIMQLFPGVKDIEIKYYPEEGYIKVDIRFRPNSAGGSAGGS [r20_31_TrROS] | 2.88 ± 0.042 |
| SAMEKPLETLEIPIPGLPVTVKITIYPSHIEKAKESGIPEITVEALLTIELPDGSKVEKKIPLTVKIPGSAG [r14_100_JUSTAS] | 1.67 ± 0.042 |
| SMSREELREYARAHPDRPLALILPGKKTLLLFDPATGAEREEDITSVEEAKERLAAQPVAVVEVVSAELLSA [r9_775_JUSTAS] | 0.499 ± 0.085 |
| SAGGSAGGSAGGLPPFDLGFESVEVEEVFPDGPVVVTVRLPDRTVRLVVVGGRIVRVEPSSAGGSAGGSAGG [r17_396_TrMRF] | 1.97 ± 0.048 |
| SAGGSAGGSALPLPPDQRLYVFRDPEGDLYLVRFEDGSEVRTSLKAEDLEKLGVPVVDIGDLSAGGSAGGSA [r18_125_TrMRF] | 1.49 ± 0.037 |
| SMLEKIEKAIESGNDGILVPLKLTPEEFKKVRAYLEELGFTLLSEEELAVGPVPVYELTFKVNTKTGEAASA [r9_498_JUSTAS] | 2.44 ± 0.1 |
| SAGGMKTVEIEIPVPPGMSIEELVKKLLEELKKKKDIKEVEIEITLKDGSKIKIRVNKNGKIVKVEKLSAGG [r13_690_TrROS_Hall] | 2.46 ± 0.11 |
| SAGGPNFTIKIEIEEIPNGVRVHKMTMELPDGHAWLMVMLYSPDPGKMFMIMVPVDPNGGIEDINIMPSAGG [r13_323_TrROS] | 4.12 ± 0.074 |
| SAGGSAGGSAGGMVVEVVELPDGQLVVRAGPVGYAVVFNGEEVTLFELPPDAEVELLPFSAGGSAGGSAGGS [r10_637_TrMRF] | 1.55 ± 0.089 |
| SAVINIEAWFPPGKSVEEAVDEAKNIIHQFGFEIDDVDVERDPNGWVRVDFTIKIKPPMPPEQRKKLQDSAG [r14_110_TrROS] | 2.91 ± 0.091 |
| MKIIDVVPTPDGLIVVIKVVFPNTEEAYVSASDLDKLIKEIFERFGVKPEYLKITDIKAFSPEELKEFLEES [r1_119_TrMRF] | 2.98 ± 0.031 |
| SAGGSAGGSAGGMTPEEKIEALIKATPPLTVKTSGPGVSYEVEDLEKLKKLNVTISSVLGSAGGSAGGSAGG [r7_504_JUSTAS] | -0.683 ± 0.24 |

test: folding stability dG unfold (combined trypsin and chymotrypsin); higher = more stable
Method in brief: as §1

| Sequence | folding stability dG unfold [kcal/mol] |
| --- | --- |
| SGLKDVISVTVTQSPTAGEVPVVTAYSPDGSRTFNLAPEETEAFLKALREAGYNVVVTDRVFVPVPAELGSA [r9_607_JUSTAS] | 1.56 ± 0.052 |
| SAGGSAGGSAGGAEITIEEKDGKLTLTVRLPDGYVATATFDPNGKWTIKEIKVYKLPEGLSAGGSAGGSAGG [r7_826_TrROS_Hall] | 3.05 ± 0.47 |
| SEKPEFKIVKIEVVEVDEDGKTVKVRVVVEGPDGRLYEVEMTLEELKKLLEELGIDLEDIKPGDVIVIPPSA [r9_1078_TrROS_Hall] | 3.58 ± 0.15 |
| SAGGSAGGSAAYTTPDGTNIILKDPNRPVVSLYKKDPSTNTWTPVSTLPISEVPEEILELLSAGGSAGGSAG [r3_241_JUSTAS] | 0.599 ± 0.062 |
| SKKKKKKKKKKVIIKIKKDGKEIYIEMTVEEIKELLKKGVKKIEIYSPSEEEKEKIKKLLEEEGVEVEEVSA [r9_810_TrROS_Hall] | 1.78 ± 0.18 |
| SAGGSMTMTVEIHYPDGTVETRTVPYAPDDPAAAIAAVKAEVEARGGEVLAVETRDGVVTVKALVPPSAGGS [r16_662_JUSTAS] | 2.72 ± 0.095 |
| SISITLPDGTKTVSQSFNPEGNTITYTMEAPGKKITITLTEKVVGGSKEISVKITTDPVPLTPEEVAALKAS [r1_154_JUSTAS] | 1.86 ± 0.12 |
| SAGGSAGGSAGGGMSLSYTVTTSTTVVPAPDGVTVLHPTTTTFPGGPTTTTTTVTVEPAGSAGGSAGGSAGG [r7_701_JUSTAS] | 0.409 ± 0.051 |
| SAGGSAGGSALAEELAAKYPGLQVEVTRVEVEREVTDADGRKRTERVERLEIRVVKPGEELSAGGSAGGSAG [r3_358_TrROS_Hall] | 0.164 ± 0.18 |
| SAGGSAITIEVTMNPNGYMGIRLRDPGNGEEIQIPFPMEPGQNPEDVRNWAREIVDELKKDGWRIYSAGGSA [r15_1022_TrROS] | 1.59 ± 0.038 |
| SAGGSAGGSAGGSNIPSDSTVTSKGSSDTTTSTYYNPETGTTLVTTTPPDGVPTTTTTASAGGSAGGSAGGS [r10_592_JUSTAS] | 0.159 ± 0.12 |
| SAGGSAMKKVTVTVKFPDGTTYTFDMDTESEEEFEKKVREEALKRFPDIPLEDVEVTEVVVTPELLSAGGSA [r15_220_JUSTAS] | 2.33 ± 0.12 |
| SAGGSAGGPFVLKFPDPKNMNKLQEAASDHGMNMNRNPEKGTHVINFGGNMLDELQELPGIEIVSAGGSAGG [r6_726_TrROS] | -0.769 ± 0.24 |
| SAGGRIRIEYDPENGTITIYVPTPDGEITPDQVEEIAKLLMELWPNIEVEIEPHPNGMVRITIKIPPKSAGG [r13_291_TrROS] | 3.54 ± 0.19 |
| SAMVVTYDPATGKITVNVTLYVEEPLTPEERAALAAAIKAALAAAHPDVDVTVTLHPAPSPEEVEKLAASAG [r14_406_JUSTAS] | 2.47 ± 0.12 |
| SAGSALAAALKLKTYTIKITAPDGTVIELTISYHPSDPEAIKEALAKAGYPPEKLKTENPNLETTEVDASAG [r5_430_JUSTAS] | 1.79 ± 0.16 |
| SAGGSAGPLPNEKVEVTLTIPLNVLVLDEDGEPLTPEEIARRVRELFSDVSVTLEPGDRLVITLTESAGGSA [r15_645_TrMRF] | 1.85 ± 0.049 |
| SAGGGLGADALAKKFKELFPNAKVEKLPNGKVLFYIPETGKLIEIYDLDDEQIIKIIDPNTPKVYIISAGGS [r16_478_TrMRF] | 1.44 ± 0.11 |
| SAGGSAGGSGMTAEEAREKKVAELKAQGYTPVKVEVVETRTDPATGKVTTKIKIEYKSPKGLTSAGGSAGGS [r20_46_JUSTAS] | 0.275 ± 0.14 |
| SAGGSAGGSMRIKFEFKIGDKWVEEEIPADLSQLPLSEIKKKHPKAEYKIEIEDEEGNWTPLLSAGGSAGGS [r12_540_JUSTAS] | 0.767 ± 0.12 |
| SAGGIKIERDPNMWKFEIPLPNKPLTIHISQSDGRYTIAIYENGKPIRTVPFPGPVDDAIERALKKLSAGGS [r8_276_TrROS] | 1.93 ± 0.054 |
